Laboratory results taken from the nanobody polyreactivity screen of Harvey et al. (2022).

Assay: yeast display, Sf9 membrane polyspecificity reagent, FACS + sequencing; frameworks hold sequencing errors
Summary of the method: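 Genes from sorted yeast were amplified by colony PCR, read by MiSeq 2 × 250 sequencing and filtered on CDR length. These cells carried a synthetic nanobody library in Saccharomyces cerevisiae BJ5465 and were sorted by FACS into low and high (top ~1%) gates on anti-HA and streptavidin fluorescence. Polyreactivity is labelled according to the gate of origin.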

| Sequence | polyreactivity (PSR sort gate) |
| --- | --- |
| QVQLVESGGGLVQAGGSHRLSCAASGGTFNSNAMGWYRQAPGKERELVASITWRGGTYYADSVKGRFTISRDNAKNTVYLQMNSLKPEDTAVYYCAARGTIPGIHWIYYYWGQGTQVTVSS | high polyreactivity |
| QVQLVESGGGLVQAGGSHRLSCAASGIIFWYNAMGWYRQAPGKERELVAAISRGGGNTYADSVKGRFTISRDNAKNTVYLQMKSLKPEDTAVYYCAAKRSGYRFNTRWFRLPKYDYWGQGTQVTVSS | low polyreactivity |
| QVQLVESGGGLVQAGGSHRLSCAASGIIFYDNTMGWYRQAPGKERELVASITWRGGSTYYADSVKGRFTISRDNAKNTFYLQMNSLKPEDTAVYYCNADSSDDYDYWGQGTQVTVSS | low polyreactivity |
| QVQLVESGGGLVQAGGSHRLSCAASGIIFYRNAMGWYRQAPGKEREFVAAISSSGTNTYYADSVKGRFTISRDNAKITVYLQMNSLKPEDTAVYYCNADPDDGYFSDFDYWGQGTQVTVSS | low polyreactivity |
| QVQLVESGGGLVQAGGSHRLSCAASGIIIRYYAMGWYRQAPGKERDLVAAISGGGSTYYADSVKGRFTISRDNAKNTVYLQMNRLKPEDTAVYYCAAAGRWYYHGYNYWGQGTQVTVSS | high polyreactivity |
| QVQLVESGGGLVQAGGSHRLSCAASGITFAFNTMGWYRQAPGKERELVAAISYSGGRTYYADSVKGRFTISRDNAKNTVYLQMNSLKPEDTAVYYCNTRYRGSYDYWGQATQVTVSS | high polyreactivity |
| QVQLVESGGGLVQAGGSHRLSCAASGITFGSYVMGWYRQAPGKERELVAAISRSGGRTYYADSVKGRFTISRDNAKNTVYLQMNSLKPEDTAVYYCAARYDSGNYVYWGQGTQLTVSS | high polyreactivity |
| QVQLVESGGGLVQAGGSHRLSCAASGITFSTYAKGGYRQAPGKERELVAAITKSGGSTYYADSVKGRFTISRDTAKNTVYLQMNSLKPEDTAVYYCAAEGDWRGSALYNYWGLGTQVTVSS | low polyreactivity |
| QVQLVESGGGLVQAGGSHRLSCAASGLILGINAKGWYRQAPGTERELVAAISSSGGRTSYADSVKGRFTISRDNGKNTVYLQMNSLNPEDTAVYYCAKRRTTYSHYDYWGHGTQVTVSS | low polyreactivity |
| QVQLVESGGGLVQAGGSHRLSCAASGLTFSKYAMGWYRQAPGKERELVAAIRRSGGSTYYADSVKGRFTISRDNAKNTVYLQMNSLKPEDTAVYYCAADNYRYWNILRDYWGQGTQVTVSS | low polyreactivity |
| QVQLVESGGGLVQAGGSHRLSCAASGRIFKINAMGCYRQAPVKERELVAGISGSGSDTYYADSVKGRFTISRDNSKNTVYLQMNSLKPEDTAVYYCAATVVQYYDRDYWGQGTQVTVSS | low polyreactivity |
| QVQLVESGGGLVQAGGSHRLSCAASGRIFVIYAMGWNRQAPGKERELVALITRGSSTYADSVKGRFTISRDNAKNTVYLQMYSLKPEDTAVYYCAARRYVTVDYDYWGQGTQVTVSS | high polyreactivity |
| QVQLVESGGGLVQAGGSHRLSCAASGRILPGYAMGWYRPAPGKERELVAAITTGGSTYYADSVKGRFTISRDNAKNTVYLQMNSLKPEDTAVYYCAKLYSYVGWGGQFDYWGQGTQVTVSS | low polyreactivity |
| QVQLVESGGGLVQAGGSHRLSCAASGRILYRNVMGWYRQAHGKERELVAGISFTGGSTYYADSVKRRFTISRDNAKNTVYLQMNSLKPEDTAVYYCAATYSSYWARYYYWGQGTPVTVSS | high polyreactivity |
| QVQLVESGGGLVQAGGSHRLSCAASGRTFANYAMGWYRQAPGKERELVAAITSGGRTYYADSVKGRFTISRDNAKNTVYLQMNSLKPEDSAVYYCAADYTYDYQNDYWGQGTQVTVSS | high polyreactivity |
| QVQLVESGGGLVQAGGSHRLSCAASGSIFHRYAMGWYRQAPGKERELVAGITWSGDSTYYADSVKGRFTISRDNAKNTVYLEMNSLKPEDTGVYYCAKRAPRHYKGVPAAWFGYWGQGTQVTVSS | low polyreactivity |
| QVQLVESGGGLVQAGGSHRLSCAASGSIFKRNAMRSYRQAPGKERELVAAISRSGGSTYYADSVKGRFTISRDFAKNTVYLQMNSLKPEDTAVYYCDARRKLGYGSENDYWGQGTQVTVSS | high polyreactivity |
| QVQLVESGGGLVQAGGSHRLSCAASGSIFRGYAMGWNRHAPRKERELVASITWSSGSTYYADSVKGRFTISRDNAKITVYLQMNSLKPEDTAVYDCAADVEYWSYEFNYWGQGTQVTVSS | low polyreactivity |
| QVQLVESGGGLVQAGGSHRLSCAASGSIFRSNTMGWYRQAPGKERELVAAITWRRGSTYYADSVKGRFTISRDNAKNTVYLQMNSLKPEDTAVYDCNALYVSRDDYWGQGTQVTVSS | high polyreactivity |
| QVQLVESGGGLVQAGGSHRLSCAASGSIFSWYAMGWYRQAPGKVRELVAAITWTRGSTYYADSVKGRFTISRDTANNTVYLQMKSLKPDDSAVYYCAARRVVYRYYWYSAYVYWGQGTQVTVSS | high polyreactivity |
| QVQLVESGGGLVQAGGSHRLSCAASGSIFTRNVMGWYRQAPGKERELVAAITSAGSTYYADSVKGRFTISRDNAKNNVYLQMTSLNPEDTAVYNCDAKVYYPYLFTSYDYWGQGTQVTVSS | high polyreactivity |
| QVQLVESGGGLVQAGGSHRLSCAASGSIFWSYAMGWYRQAPGKARELVASISRRGGSTSYADSVKGRFTISRDNAKNTVYLQMNSLKPEDTAVYYCNAYGRQNHYYWGQGTQVTVSS | high polyreactivity |
